Experimental data: US20230151111A1 (AKESO BIOPHARMA, published 2023)

Experiments:
[1] = target: T1, human NT5E(1-552)-his (human, UniProt P21589 27-552); test: BLI (Fortebio), antibody on Protein A sensor, NT5E(1-552)-his 3.125-200 nM, 37 C
T1 construct: The entry starts at Met 1
T1 sequence: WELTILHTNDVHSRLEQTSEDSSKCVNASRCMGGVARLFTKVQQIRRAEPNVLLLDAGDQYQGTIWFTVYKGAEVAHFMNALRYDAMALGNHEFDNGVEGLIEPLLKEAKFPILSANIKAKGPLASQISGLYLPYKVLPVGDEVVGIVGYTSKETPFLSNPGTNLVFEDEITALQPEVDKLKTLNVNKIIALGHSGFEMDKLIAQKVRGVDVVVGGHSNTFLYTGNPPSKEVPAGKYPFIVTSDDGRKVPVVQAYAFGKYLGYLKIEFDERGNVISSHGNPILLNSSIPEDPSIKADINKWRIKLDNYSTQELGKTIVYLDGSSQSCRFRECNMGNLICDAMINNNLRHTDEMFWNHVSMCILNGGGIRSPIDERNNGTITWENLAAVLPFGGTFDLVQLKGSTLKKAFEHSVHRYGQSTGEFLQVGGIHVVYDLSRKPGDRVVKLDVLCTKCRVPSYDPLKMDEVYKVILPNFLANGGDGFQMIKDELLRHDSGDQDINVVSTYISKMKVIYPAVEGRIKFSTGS
Protocol: The sample dilution buffer was PBST, pH 7.4. The antibody was immobilized on a Protein A sensor at a concentration of 5 μg/mL with the immobilization time of about 15 s. […] The protein was dissociated in the buffer for 600 s. The sensor was refreshed with 10 mM Gly solution, pH 1.5. The detection temperature was 37° C., the detection frequency was 0.6 Hz, and the sample plate shaking rate was 1000 rpm. The data were analyzed by 1:1 model fitting to obtain affinity constants.

[2] = target: T2, human PD-1-mFc-biotin (human, UniProt Q15116 25-170, limits assumed, biotin label, site not stated); test: competitive ELISA, competitor coated PD-L1-mFc; antibody 5 ug/mL diluted 1:3
Protocol: (§1) After incubation, the microplate was blocked with a PBS solution containing 1% BSA at 37° C. for 2 h. After blocking, the plate was washed three times and dried. The antibody was serially diluted to 7 concentrations in a gradient ratio of 1:3 on a dilution plate with 10 μg/mL as the starting concentration, and a blank control was set. […] Then the mixture after reaction was added to the coated microplate, and the microplate was incubated for at 37° C. for 30 min. After incubation, the plate was washed three times with PBST and dried. SA-HRP (KPL, 14-30-00) working solution was added, and the plate was incubated at 37° C. for 30 min. After incubation, the plate was washed four times and patted dry. Then TMB (Neogen, 308177) was added in the dark for chromogenesis for 5 min, and a stop solution was added to terminate chromogenic reaction. Then the microplate was put into a microplate reader immediately, and the OD value of each well in the microplate was read at 450 nm. The data were analyzed and processed by SoftMax Pro 6.2.1.

[3] = target: T3, PD-1-mFc (human, UniProt Q15116 25-170, limits assumed); test: BLI (Fortebio), antibody on AHC sensor, PD-1-mFc 0.6-50 nM, 37 C
T3 construct: also called human PD-1-mFc
Protocol: The sample dilution buffer was PBST, 0.1% BSA, pH 7.4. The antibody was immobilized on an AHC sensor at a concentration of 5 μg/mL with an immobilization height of about 0.4 nm. The sensor was equilibrated in a buffer for 60 s, and the binding of the immobilized antibody on the sensor to the antigen PD-1-mFc at concentrations of 0.6-50 nM (three-fold dilution) was determined in 120 s. The protein was dissociated in the buffer for 180 s. The detection temperature was 37° C., the detection frequency was 0.3 Hz, and the sample plate shaking rate was 1000 rpm. The data were analyzed by 1:1 model fitting to obtain affinity constants.

[4] = target: T2, human PD-1-mFc-biotin; test: competitive ELISA, competitor coated PD-L1-mFc; antibody 5 ug/mL
Protocol: as §1

T3 sequence (Q15116 other isoform, or with tags, fused parts or gaps limits assumed): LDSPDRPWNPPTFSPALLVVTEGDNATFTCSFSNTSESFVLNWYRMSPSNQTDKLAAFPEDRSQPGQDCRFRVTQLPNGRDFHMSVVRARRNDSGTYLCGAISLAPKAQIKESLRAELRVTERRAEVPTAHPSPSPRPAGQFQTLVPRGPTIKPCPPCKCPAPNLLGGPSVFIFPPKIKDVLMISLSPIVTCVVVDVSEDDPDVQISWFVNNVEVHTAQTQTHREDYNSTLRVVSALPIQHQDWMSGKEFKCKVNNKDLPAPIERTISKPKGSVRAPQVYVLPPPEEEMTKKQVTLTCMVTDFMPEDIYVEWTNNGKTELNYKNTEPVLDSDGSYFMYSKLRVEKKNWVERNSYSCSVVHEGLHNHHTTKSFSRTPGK
T2 sequence (Q15116 other isoform, or with tags, fused parts or gaps limits assumed): as above

B1: P1D7V01 (bispecific antibody, human IgG1, kappa)
heavy: not shown
light: DIQMTQSPSSMSASVGDRVTFTCRASQDINTYLSWFQQKPGKSPKTLIYRANRLVSGVPSRFSGSGSGQDYTLTISSLQPEDMATYYCLQYDEFPLTFGAGTKLELKRTVAAPSVFIFPPSDEQLKSGTASVVCLLNNFYPREAKVQWKVDNALQSGNSQESVTEQDSKDSTYSLSSTLTLSKADYEKHKVYACEVTHQGLSSPVTKSFNRGEC
notes: Morrison form IgG-scFv
Kd [1]: 229 pM | koff [1]: 4.13e-05 s⁻¹ | kon [1]: 181000 M⁻¹ s⁻¹ | OD450 [2]: 0.05 OD | Kd [3]: 176 pM | koff [3]: 7.37e-05 s⁻¹ | kon [3]: 419000 M⁻¹ s⁻¹

B2: P1D7V03 (bispecific antibody, human IgG1, kappa)
heavy: not shown
light: B1 light
notes: Morrison form IgG-scFv
OD450 [4]: 0.048 OD
